The text below walks through data of US20230061973A1 (LARIMAR THERAPEUTICS, published 2023).

The target in assay [1] is exemplary TAT frataxin fusion molecule (HIV-1) (UniProt Q16595). The assay is described as follows: PK sandwich ELISA in human plasma, antibody as capture, HRP anti-frataxin mAb detection.
The target is the same in assay [2]. The assay is described as follows: immunopurification from plasma on antibody-coated magnetic beads, trypsin digest, LC/MS of peptide ….
Assay [3] has the same target. The assay is described as follows: bridging (ADA) assay in human plasma: antibody titrated with biotinylated and sulfo-tagged TAT frataxin fusion molecule, streptavidin plate, ECL read-out.

“polyclonal anti-TAT E8332 polyclonal antibody”: in assay [1], the Mean OD at plasma conc. 0.400 ng/mL worked out at 0.075 OD, the Mean OD at plasma conc. 0.800 ng/mL amounted to 0.113 OD, the Mean OD at plasma conc. 1.60 ng/mL stood at 0.165 OD and the Mean OD at plasma conc. 3.20 ng/mL turned out to be 0.322 OD. In assay [1], this substance had a Mean OD at plasma conc. 6.40 ng/mL of 0.631 OD, a Mean OD at plasma conc. 12.8 ng/mL of 1.08 OD, a Mean OD at plasma conc. 25.6 ng/mL of 1.83 OD and a Mean OD at plasma conc. 51.2 ng/mL of 3.1 OD. Also, in assay [1], the S/N at plasma conc. 0.400 ng/mL came to 1.5, the S/N at plasma conc. 0.800 ng/mL amounted to 2.3, the S/N at plasma conc. 1.60 ng/mL is 3.4 and the S/N at plasma conc. 3.20 ng/mL is 6.6. In assay [1], this substance came in with a S/N at plasma conc. 6.40 ng/mL of 12.9, a S/N at plasma conc. 12.8 ng/mL of 22.1, a S/N at plasma conc. 25.6 ng/mL of 37.3 and a S/N at plasma conc. 51.2 ng/mL of 63.3. In assay [2], this substance showed an LC/MS signal after immunopurification, fold higher than with anti-TAT antibody ab63957 of 5 fold higher. Also, the EC50 (read off the curve) in assay [3] was 20 µg/mL.
